As a reminder, the EC50 is the concentration giving half of the maximal effect.

For test [1], the target named is FITC-labelled recombinant human HER2 (human) (UniProt P04626). Put plainly: flow cytometry, CDV on aldehyde/sulfate latex beads, FITC-HER2 titrated. A general note: A flow cytometer gives signals particle by particle.
Test [2] shares this target. Briefly: nanoparticle flow cytometry of CDV incubated with FITC-HER2.

For “scTTZ-gLAMP1 (trastuzumab scFv fused to glycosylated LAMP1) on cell-derived vesicles”, the EC50 in test [1] turned out to be 0.94 µg/mL. For the same substance, the percent of CDV with FITC fluorescence in test [2] stood at 44.5%.
